Measured values taken from patent publication US20250043302A1, “MUTATED HYDROXYPHENYLPYRUVATE DIOXYGENASE POLYPEPTIDE, AND CODING GENE AND USE THEREOF” (BEIJING DABEINONG BIOTECHNOLOGY CO., LTD., priority 2021, published 2025).
Substitutions are numbered along the chain they refer to. Numbers in names are those of the source.

Columns and labels:
Assay type in all cases: in vivo
[1] = tested on: Arabidopsis thaliana T1 plants; assay: Topramezone tolerance of transgenic Arabidopsis thaliana T1 plants (spray, bleached leaf area grade, damage score); details: Table 13; for Classification and statistics of the grade of pesticide damage Grade 0: number of plants at grade 0; for Classification and statistics of the grade of pesticide damage Grade 1: number of plants at grade 1; for Classification and statistics of the grade of pesticide damage Grade 2: number of plants at grade 2; for Classification and statistics of the grade of pesticide damage Grade 3: number of plants at grade 3; for Scores: pesticide damage score
Summary of the method: (§1)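 T1 transformants selected by glufosinate; 18-day-old plants, with empty-vector and wild-type controls, sprayed with topramezone (25–200 g ai/ha), isoxaflutole (35–280 g ai/ha) or mesotrione (52.5–420 g ai/ha), water as 0×. Bleached leaf area fraction scored at 7 DAT as grades 0–3.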

[2] = tested on: Arabidopsis thaliana T1 plants; assay: Isoxaflutole tolerance of transgenic Arabidopsis thaliana T1 plants (spray, bleached leaf area grade, damage score); details: for Classification and statistics of the grade of pesticide damage Grade 0 / Classification and statistics of the grade of pesticide damage Grade 1 / Classification and statistics of the grade of pesticide damage Grade 2 / Classification and statistics of the grade of pesticide damage Grade 3: number of plants in grade;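 on Scores: Weighted damage index from 0 to 100 where higher means more damage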
Summary of the method: as §1

[3] = tested on: Arabidopsis thaliana T1 plants; assay: Mesotrione tolerance of transgenic Arabidopsis thaliana T1 plants (spray, bleached leaf area grade, damage score); design: Scores: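 damage score 0-100 computed as Σ(N×S)/(T×M)×100 over grades 0-3 with higher meaning more damage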; details: for Classification and statistics of the grade of pesticide damage Grade 0 / Classification and statistics of the grade of pesticide damage Grade 1 / Classification and statistics of the grade of pesticide damage Grade 2 / Classification and statistics of the grade of pesticide damage Grade 3: number of plants in grade
Summary of the method: as §1

B1: AtHPPDm-F383Y-02: nucleotide sequence encoding Arabidopsis thaliana HPPD with F383Y; vector DBN11797 (nucleic acid)
DNA: ATGGGACATCAGAATGCTGCTGTATCAGAAAATCAAAATCATGATGATGGAGCCGCCTCCTCACCAGGGTTTAAGTTGGTTGGGTTCTCCAAGTTTGTACGGAAGAACCCAAAATCCGACAAGTTCAAGGTTAAACGCTTCCACCACATTGAATTCTGGTGCGGCGACGCCACCAATGTTGCTCGGCGTTTTTCATGGGGTTTAGGCATGAGATTCTCAGCAAAGAGTGACCTGAGCACCGGCAACATGGTTCATGCTAGCTATCTCTTAACATCTGGAGATTTGAGGTTTCTTTTCACGGCGCCGTACTCACCATCACTCTCCGCCGGCGAGATCAAACCCACCACGACTGCAAGCATACCTTCATTTGATCATGGTAGTTGCAGATCCTTCTTCTCGTCGCACGGCCTAGGGGTGCGCGCGGTCGCCATCGAAGTTGAAGATGCAGAATCAGCGTTTAGTATCAGCGTGGCAAATGGAGCTATTCCTTCCTCCCCTCCAATTGTCCTCAATGAGGCTGTAACTATTGCCGAGGTGAAGTTGTATGGAGATGTTGTGCTGAGATATGTTTCTTACAAGGCAGAGGACACTGAGAAATCTGAATTTTTGCCTGGTTTTGAAAGGGTCGAGGATGCTTCAAGTTTTCCTCTTGATTACGGCATACGACGGTTGGATCACGCGGTTGGAAATGTACCAGAACTTGGGCCGGCGCTCACTTATGTGGCTGGTTTCACTGGATTCCATCAATTTGCTGAGTTCACAGCTGATGATGTTGGGACTGCTGAAAGTGGGTTGAACTCTGCAGTCCTCGCCTCTAATGATGAAATGGTGCTCCTCCCGATCAACGAGCCTGTGCATGGCACCAAAAGGAAATCACAAATACAGACATATCTTGAGCACAATGAAGGTGCAGGGCTTCAACATCTTGCACTGATGTCTGAAGACATTTTCCGTACGCTGAGAGAGATGAGGAAGAGAAGTAGTATTGGTGGATTTGACTTCATGCCTTCTCCCCCACCAACTTACTACCAGAACTTGAAGAAGAGGGTTGGTGATGTGCTATCTGATGACCAGATCAAGGAGTGTGAAGAATTGGGCATTCTTGTTGATCGGGACGACCAAGGAACATTACTGCAGATATTTACAAAACCACTTGGTGACCGCCCCACTATTTATATTGAGATCATACAAAGAGTCGGCTGCATGATGAAGGATGAGGAAGGAAAAGCATATCAATCTGGTGGTTGTGGCGGCTTTGGGAAAGGAAACTTCTCTGAGCTGTTCAAATCCATCGAGGAGTATGAGAAGACCTTGGAGGCCAAGCAGCTCGTGGGTTGA
modifications: AtHPPDm-F383Y-02 Nucleotide Sequence
notes: vector DBN11797
0: Classification and statistics of the grade of pesticide damage Grade 0 ([1]; topramezone 25 g ai/ha (1×)) | Classification and statistics of the grade of pesticide damage Grade 1 ([1]; topramezone 25 g ai/ha (1×)) | Classification and statistics of the grade of pesticide damage Grade 2 ([1]; topramezone 25 g ai/ha (1×)) | Classification and statistics of the grade of pesticide damage Grade 0 ([1]; topramezone 100 g ai/ha (4×)) | Classification and statistics of the grade of pesticide damage Grade 1 ([1]; topramezone 100 g ai/ha (4×)) | Classification and statistics of the grade of pesticide damage Grade 2 ([1]; topramezone 100 g ai/ha (4×)) | Classification and statistics of the grade of pesticide damage Grade 0 ([2]; isoxaflutole 35 g ai/ha) | Classification and statistics of the grade of pesticide damage Grade 1 ([2]; isoxaflutole 35 g ai/ha) | Classification and statistics of the grade of pesticide damage Grade 2 ([2]; isoxaflutole 35 g ai/ha) | Classification and statistics of the grade of pesticide damage Grade 0 ([2]; isoxaflutole 70 g ai/ha) | Classification and statistics of the grade of pesticide damage Grade 1 ([2]; isoxaflutole 70 g ai/ha) | Classification and statistics of the grade of pesticide damage Grade 2 ([2]; isoxaflutole 70 g ai/ha) | Classification and statistics of the grade of pesticide damage Grade 0 ([3]; mesotrione 52.5 g ai/ha) | Classification and statistics of the grade of pesticide damage Grade 1 ([3]; mesotrione 52.5 g ai/ha) | Classification and statistics of the grade of pesticide damage Grade 2 ([3]; mesotrione 52.5 g ai/ha) | Classification and statistics of the grade of pesticide damage Grade 0 ([3]; mesotrione 105 g ai/ha) | Classification and statistics of the grade of pesticide damage Grade 1 ([3]; mesotrione 105 g ai/ha) | Classification and statistics of the grade of pesticide damage Grade 2 ([3]; mesotrione 105 g ai/ha)
Non-resistant: Resistance evaluation ([1]; topramezone 25 g ai/ha (1×)) | Resistance evaluation ([1]; topramezone 100 g ai/ha (4×)) | Resistance evaluation ([2]; isoxaflutole 35 g ai/ha) | Resistance evaluation ([2]; isoxaflutole 70 g ai/ha) | Resistance evaluation ([3]; mesotrione 52.5 g ai/ha) | Resistance evaluation ([3]; mesotrione 105 g ai/ha)
16: Classification and statistics of the grade of pesticide damage Grade 3 ([1]; topramezone 25 g ai/ha (1×)) | Classification and statistics of the grade of pesticide damage Grade 3 ([1]; topramezone 100 g ai/ha (4×)) | Classification and statistics of the grade of pesticide damage Grade 3 ([2]; isoxaflutole 35 g ai/ha) | Classification and statistics of the grade of pesticide damage Grade 3 ([2]; isoxaflutole 70 g ai/ha) | Classification and statistics of the grade of pesticide damage Grade 3 ([3]; mesotrione 52.5 g ai/ha) | Classification and statistics of the grade of pesticide damage Grade 3 ([3]; mesotrione 105 g ai/ha)
100: Scores ([1]; topramezone 25 g ai/ha (1×)) | Scores ([1]; topramezone 100 g ai/ha (4×)) | Scores ([2]; isoxaflutole 35 g ai/ha) | Scores ([2]; isoxaflutole 70 g ai/ha) | Scores ([3]; mesotrione 52.5 g ai/ha) | Scores ([3]; mesotrione 105 g ai/ha)

B2: AtHPPDm-F372A-F383Y-02: nucleotide sequence encoding Arabidopsis thaliana HPPD with F372A+F383Y; vector DBN11798 (nucleic acid)
DNA: B1 DNA with T1141G, T1142C, T1143C
modifications: AtHPPDm-F372A-F383Y-02 Nucleotide Sequence
notes: vector DBN11798
16: Classification and statistics of the grade of pesticide damage Grade 3 ([2]; isoxaflutole 70 g ai/ha) | Classification and statistics of the grade of pesticide damage Grade 3 ([3]; mesotrione 105 g ai/ha)
3: Classification and statistics of the grade of pesticide damage Grade 2 ([2]; isoxaflutole 35 g ai/ha) | Classification and statistics of the grade of pesticide damage Grade 3 ([3]; mesotrione 52.5 g ai/ha)
56: Scores ([2]; isoxaflutole 35 g ai/ha)
5: Classification and statistics of the grade of pesticide damage Grade 1 ([3]; mesotrione 52.5 g ai/ha)
63: Scores ([3]; mesotrione 52.5 g ai/ha)
100: Scores ([2]; isoxaflutole 70 g ai/ha) | Scores ([3]; mesotrione 105 g ai/ha)
0: Classification and statistics of the grade of pesticide damage Grade 3 ([1]; topramezone 25 g ai/ha (1×)) | Classification and statistics of the grade of pesticide damage Grade 0 ([1]; topramezone 100 g ai/ha (4×)) | Classification and statistics of the grade of pesticide damage Grade 1 ([1]; topramezone 100 g ai/ha (4×)) | Classification and statistics of the grade of pesticide damage Grade 0 ([2]; isoxaflutole 35 g ai/ha) | Classification and statistics of the grade of pesticide damage Grade 0 ([2]; isoxaflutole 70 g ai/ha) | Classification and statistics of the grade of pesticide damage Grade 1 ([2]; isoxaflutole 70 g ai/ha) | Classification and statistics of the grade of pesticide damage Grade 2 ([2]; isoxaflutole 70 g ai/ha) | Classification and statistics of the grade of pesticide damage Grade 0 ([3]; mesotrione 52.5 g ai/ha) | Classification and statistics of the grade of pesticide damage Grade 0 ([3]; mesotrione 105 g ai/ha) | Classification and statistics of the grade of pesticide damage Grade 1 ([3]; mesotrione 105 g ai/ha) | Classification and statistics of the grade of pesticide damage Grade 2 ([3]; mesotrione 105 g ai/ha)
9: Classification and statistics of the grade of pesticide damage Grade 1 ([2]; isoxaflutole 35 g ai/ha)
12: Classification and statistics of the grade of pesticide damage Grade 3 ([1]; topramezone 100 g ai/ha (4×))
4: Classification and statistics of the grade of pesticide damage Grade 0 ([1]; topramezone 25 g ai/ha (1×)) | Classification and statistics of the grade of pesticide damage Grade 1 ([1]; topramezone 25 g ai/ha (1×)) | Classification and statistics of the grade of pesticide damage Grade 2 ([1]; topramezone 100 g ai/ha (4×)) | Classification and statistics of the grade of pesticide damage Grade 3 ([2]; isoxaflutole 35 g ai/ha)
42: Scores ([1]; topramezone 25 g ai/ha (1×))
8: Classification and statistics of the grade of pesticide damage Grade 2 ([1]; topramezone 25 g ai/ha (1×)) | Classification and statistics of the grade of pesticide damage Grade 2 ([3]; mesotrione 52.5 g ai/ha)
92: Scores ([1]; topramezone 100 g ai/ha (4×))
Non-resistant: Resistance evaluation ([1]; topramezone 100 g ai/ha (4×)) | Resistance evaluation ([2]; isoxaflutole 70 g ai/ha) | Resistance evaluation ([3]; mesotrione 105 g ai/ha)
Poorly resistant: Resistance evaluation ([3]; mesotrione 52.5 g ai/ha)
Poorly: Resistance evaluation ([1]; topramezone 25 g ai/ha (1×)) | Resistance evaluation ([2]; isoxaflutole 35 g ai/ha)
